This data set is described as follows: yeast display, Sf9 membrane polyspecificity reagent, FACS + sequencing; frameworks hold sequencing errors. An outline of the steps:
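Using colony PCR, genes from sorted yeast display clones were amplified, then sequenced on MiSeq at 2 × 250 and filtered by CDR length. The clones had been stained with 10% biotinylated, detergent-solubilized Sf9 membrane reagent for 1 hour at 4 °C and sorted by FACS into low and high (top ~1%) gates on anti-HA and streptavidin fluorescence. Polyreactivity labels come from the gate of origin.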
Turning to “QVQLVESGGGLVQAGGSLRLSCAASGLIFYHNTMGWYRQAPGKEREFVASITQSGGSTYYADSVKGRFTISRDNAKNTVYLQMNSLKPEDTAVYYCAKRLRPGGYWYDYWGQGTQVTVSS”, the “polyreactivity (PSR sort gate)” value was “high polyreactivity”.
The result for “QVQLQESGGGLVQAGGSLRLSCAASCTISQEDWMGWYRQAPCKEREFVASIGLGSNTNYADSLKGRFTISRDNAKNTVYLKMNSLKPEYTAVYYCASEENLAYYFKYYYWGQGTQVTVSS” reads “low polyreactivity”; that for “QVQLVESGGALVQAGGSLRLSCAASGRIFGYYAMGWYRQAPGKERELVAAITVSGTSTYYADSVKGRFTISRDNAKNTVYLQMNSLKPEDTAVYYCAARPRRRYYGYDSWGQGTQVTVSS”, “high polyreactivity”.
The result for “QVQLVESGGGLVQAGGSLRLSCAASGITFEYYAMGWYRQAPGKERELVAAIDTVGSTNYADSVKGRFTISRDNAKNTVYLQMNSLKPEDTAVYYCAADWSWWDGEDYHFEYDYWGQGTQVTVSS” reads “low polyreactivity”; that for “QVHLVESGGGLVQAGGSLRLSCAASGRTFPYNAMGGYRQAPGKERELVAAISSGGSTTYADSVKGRFTISRDNAKNTVYLQMNSQKPEDTAVYYCATKYQRRPYRYYYWGQGTQVTVSS”, “low polyreactivity”; that for “QVQLVESGGGLVQAGGSLRLSCAASGSIFKVYAMGWYRQAPGKERELVAAISRGGSTYADSVKGRFTISRDNAKNTVYLQMISLKPEDTAVYYCNATVGRIYVTRYDYWGQGTQVTVSS”, “high polyreactivity”.
“QVQLVESGGGLVQAGGSLRLSCAASGLIFYRYAMGWYRQAPGKERELVAAISSSGGSTYYADSVKGRFTISRDNAKNTVYLQMNSLKPDDTAVYYCAARPSTHGYKYGYWGQGTQVTVSS”: the “polyreactivity (PSR sort gate)” value was “high polyreactivity”.
As for “QVQLVESGGGLVQAGGSLRLSCAASGRIFRQYTMGWNRQAPGKERELVAAITGTRGSTYYADSVKGRFTISRDNAKNTVYLQMNSLKPVDTAVYSCDADYSARYGYWGQGTQVTVSS”, the “polyreactivity (PSR sort gate)” value was “high polyreactivity”.
The result for “QVQLVESGGGLVQAGGSLRLSCAASGSIFDRYAMGWYRQAPGKERELVAAITTSGGSTSYADSVKGRYTISRDNAKNTVYLQMNSLIPEDTAVYYCAAGYDYVFAFLNEYDYWGQGTQVTVSS” reads “low polyreactivity”; that for “QVQLVESVGGLVQAGGSLRLSCAASGRIFWKYTMGWYRQAPGKERELVAAIRSAGGSTYYADSVKGRFTISRDNAKNTVYLQMNSLKPEDTAVYYCAAEPSQRYPLSGYYYWGQGTQVTVSS”, “low polyreactivity”; that for “QVQLVESGRGLVQAGGSLRLSCADSGYIFWYYAMGWYRQAPGKERELVATITVSAGTTYFADSVKGRFTISRDNAKNTVYLQMNSLKPEDTAVYYCNKRSALSFVYDFDYWGQGTQVTVSS”, “low polyreactivity”.
The result for “QVQLVESGGGLVQAGGSLSLRCAASGGTFAPYAMGWYRQAPGTERELDAAISWSGGSTYYADSVKGLFTISRDNAKISVYLQMNSLKPEDTAVYYCAGRLTRGIYSTYYYWGQGTQGTVSS” reads “high polyreactivity”; that for “QVQLVESGGGLVQAGGSLRLSCAASGSMFKNNAMGWYRQAPGKARELVAAISRSGGSTYYADSVKGRFTISRDNAKNTVYLPMNSLKPEDTAVYYCARDVDTHYPYAYDYWGQGTQVTVSS”, “high polyreactivity”.
Take “QVQLVESGGGLVQAGGSLRLSCAASGSIFSPYAMGWYRQAPGKERELVATITWSGGSTYYADSVKGRFTISRDNAKNTVYLQMNSLKPEDTAVYYCAATRSGYTSYTDDSWGQGTQVTVSS”: the “polyreactivity (PSR sort gate)” value was “high polyreactivity”.
The result for “QVQLVESGGGLVQAGGSLRISCAASGRTFRKYAMGWYRQAPGKERELVAAISWSGGSTYYANSVKGRFTISRDNAKNTVYLQMNSLKPEDTAVYYCAAVPVHTGSLYWGFTSGYDYWGQGTQVTVSS” reads “low polyreactivity”.
The result for “QVQLVESGAGIVQAGGSLRLSCAASGLTFTYYAMGWYRQAPGKERELVAAISRSGTGTYYADSVKGRFTISRDNAKNTVYLQMNSLTAEDTAVYYCNAVVRTYGYDYWGQGTQVTVSS” reads “high polyreactivity”; that for “QVQLVESGGGLVQAGGSLRLSCAASGSTFKVYAMGWYRQAPGKERELVAAISRSGGRTYYADSVKGRFTISRDNAKNTVYLQMNSLKPEDTAVYYCNRDYTFSQGHYSGSYGYWGQGTQVTVSS”, “high polyreactivity”.
The result for “QVQLVESGGGLVQGGGSLRLSCDDSGRNFNAYSRGWYRQATAKERELVAAISSRGGSTYYADSVKGRFTISRDNEMNSVYLKMNSLQPEDSAVYYFAAGIYTATGYGYWGQGTQVTVSS” reads “high polyreactivity”; that for “QVQLVESGGGLVQAGGSLRLSCAASGSILEPYAMGWYRQAPGKERELVAAISSSGGSTRYADSVKWRFTISRDNAKNTVYLQMNSLKPEDTAVYYCAARFRAKFNYWGQGTQVTVSS”, “high polyreactivity”; that for “QVQLVESGRGLVQAGGSLRLSCAASASTFTLNTMGWYREAAGKERELVAAITASGGRTFYADSVKGPFTISRDNANNTVYLQMTSLKPEDTAFYYCAKRPYGWVSRYDYWGQVTQVTVSS”, “low polyreactivity”.
As for “QVQLVESGGGLVQAGGSLRLSCAASGRTIKYYAMGWYRQAPGKESELVAAISSSGGRTNYADSVKGRFTISRDNANNTVYLQMNSLKPEDTAVYYCAARFYKTYPRMNYWGQGTQVTVSS”, the “polyreactivity (PSR sort gate)” value is “high polyreactivity”.
“LLMGWYRQAPGEERELVAGINDGASTNYADSVKGRFTISRDNARNTVYLKMNSLKPGDTAVYYCAVWQPVLIWFYYWGQGTQVTVSS”: the “polyreactivity (PSR sort gate)” value is listed as “high polyreactivity”.
For the sequence “QVQLVESGGGLVQAGGSLRLSCAASGRTFRFYAMGWYRQAPGKERELVAAISSGGSTYYADSVKGRFTISRDNAKNTVYLQLNSLKAEDTAVYYCAVKQRDKFAGGRNDYWGQGTQVTVSS”, the “polyreactivity (PSR sort gate)” value is “high polyreactivity”.
The result for “QVHLVESGGGLVQAGGSLRLSCAASGGTFGYYAMGWYRPAPGKERELVAAINARGDSTYYADSVKGRFTISRDNAKNTVYFLMNSLKPEDTAVYYCNTGIALFGYKYHYWGQGTQVTVSS” reads “low polyreactivity”.
The result for “QVQLVESGGGLVQAGGSLRLSGAASGSTFTEYAMGWYRQAPGKEREFVAAITESGASTYYADSVKGRFTISRDNAKNTVYLQRNSLKPEDTAVYYCNAGYWRFIDSYDYWGQGTQVTVSS” reads “high polyreactivity”; that for “QVQLVESGGGLVQAGGSLRFSCAASGFTFYVYAMGWYRHAPGKERELVAAISKSGGSTYYSDSVKGRFTISRDNAKNTVYLQMNSLKPEDTAVYYCAVYDKRSGYRGGHRYNSWGQGTQVTVSS”, “high polyreactivity”.
The result for “QVQLVESGGGLVQAGGSLRLSCAASGRIFRVYAMGWYRQAPGKERELVAAISWSGGRTYYADSVKGRFTISRDNAKNTVYLQMNSLKPEDTAVYYCAAVSCYALGFDYWGQGTQVTVSS” reads “high polyreactivity”; that for “QVQLVESGGGLVQAGGSLRLSCAASGSIFIGNTMGWYRQAPGKERELVATIRRSGSRTYYADSVKGRFTISRDNAKNTVYLQMNSLKPEDTAVYYCAADRLRNSGYKTIYDYWGQGTQVTVSS”, “low polyreactivity”.
Consider “QVQLVESGGGLVQAGGSLRLSCAASGRTSNGYAMGWYRQAPGKERELVAAYADSVKGRFTISRDNAKNTVYLQMNSLKPEDTAVYYCNADYYPVSRVGYVYWAYYYWGQGTQVTVSS”, for which the “polyreactivity (PSR sort gate)” value is given as “low polyreactivity”.
The result for “QVQLVESGGGLVQAGGSLRLSCAASGFTFSYNAMGWYRQAPGKERELVAVINSSGGRTYYADSVKGRFTISRDNAKNTVYLQMNSLKPEDTAVYYCAARPVLAKYYYWGQGTQVTVSS” reads “high polyreactivity”; that for “QVQLLESGGGLVQAGGSLRLSCAASGSILYPYAMGWYRQAPGTERELVAVITKSGGGTYYADSVKGRFTISRDNAKNTVYLQMNSLKPEDTAVYYCNRVWLRGAPHMEYWGQGTQVTVSS”, “high polyreactivity”; that for “QVQLVESGGGLVQAGGSLRLSCAASGSIFFLYAMGWYRQAPGKERELVAAISLSTGNTYYADSVKGRFTISRDNAKNTVYLQMNSLKPEDSAVYYCAATYVSISYRYDYWGQGTQVTVSS”, “high polyreactivity”.
The result for “QVLLVESGGGLVQAGGSLRLSCAASGIIFYRNAMGWYRQAPGKERELVAVITASGGHTYYADSVKGRFTISRDNAKNTVYLQMNSLKPEDTAVYYCNRELTSPRRWHVSRADDYWGQGTQVTVSS” reads “low polyreactivity”; that for “QVQLVESGGGLVQAGGSLRLSCAASGSTFRDYAMGWYRQAPGKERELVAAITQNGGSTYYADSVKGRFTISRDNAKNSVYLQMNSLKPEDTAVYDCAADSDWFVWQEDYWGQGTQVTVSS”, “low polyreactivity”.
In the case of “QVQLVESGGGLVQAGGSLRLSCAASGFIFPYYAMGWYRQAPGKERELVAAITRSGGRTYYADSVKGRFTISRDNAKNTVYLQMNSLKPEDTAVYYCAVRYIRYRNLKYDFWGQGTHVTVSS”, the “polyreactivity (PSR sort gate)” value is reported as “high polyreactivity”.
In the case of “QVQLVESGGGLVQAGGSLRLSCAASGRTFYYYAMGWYRQAPGKERELVAAISWSGGRTYYADSVKGRFTISRDNAKNTFYLQMNSMNPEDTAVYYCAADKYYSEFDYWGQGTQVTVSS”, the “polyreactivity (PSR sort gate)” value is reported as “low polyreactivity”.
In the case of “QVQLVESGGGLVQAGGSLRLSCAASGITFLYYAMGWYRQAPGKERELVAAISGGGASTYYADSVKGRFTISRDNAKNTVYLQKNSLKPEDTAVYYCAAGYRDFFRARFGYWGQGTQVTVSS”, the “polyreactivity (PSR sort gate)” value was “high polyreactivity”.
The result for “QVQLLESGGGIVKAGGFLRLSCAASGSTFRRYAMGRYREAPGIERELVAAITGRGGSTSYADSVKGRFTISRDNAMNTVYLQMNSLKPEDTSVYYCAADDKYFYPGNGYWGQGTQVTVSS” reads “high polyreactivity”; that for “QVQLVESGACLVQAGGSLRLSCAASGGIFYYYAMGWYRQAPGKERELVAVISPGGGRTYYADSVKGRFTISRDIAKNTVYLQKNSLKPEDTAVYYCARDSPGDGGREVARGSYNYWGQGTQVTVSS”, “high polyreactivity”; that for “QVQLVESGGGLVQAGGSLRLSCAASGRIITRNAMGWYRPAPGKERELVAAISSGGSTSYADSVKGRFTISRDNAKNTVYLQLNSVKPEDTAVYYCATKWYWWYDGYYYWGQGTQVTVSS”, “low polyreactivity”.
With “QVQLVESGGGLVQAGGSLRLSCAASGSTFYIYAMGWYRQAPGKERELVASIRLSTGRTNYADSVKGRFTISRDNAKNTVYLQMNSLKPEDTAVYYCAAAGYRGGGYWGQGTQVTVSS”, the “polyreactivity (PSR sort gate)” value was “high polyreactivity”.

For the origin of these results see the nanobody polyreactivity screen of Harvey et al. (2022).
